Usually stoichiometry N stands for a count of units in the complex or per binding partner.

Our source for the stoichiometry N values is doi:10.64898/2025.12.06.692711.

Test [1] concerns the target HTkC (TK1040), face-to-face (FtF) histone from Thermococcus kodakarensis (Thermococcus kodakarensis). Nature of the test: SEC-MALS. In general terms: SEC sorts molecules by how far they enter the pores of the column.
The target of test [2] is HTkC R45A (Thermococcus kodakarensis). Nature of the test: SEC-MALS.

In turn, “HTkC (TK1040), face-to-face (FtF) histone from Thermococcus kodakarensis (natural protein)” registered a stoichiometry N in test [1] of 4. As for HTkC R45A (natural protein), the stoichiometry N in test [2] stood at 2.
